Where “and” joins values, the source holds several entries; their conditions need not be identical. Equal entries are not always repeated.
Columns and labels:
[1] = target: T1, protein containing the extracellular domain of mouse TREM2 fused to Fc (mouse, UniProt Q99NH8 19-171); assay: SPR (Biacore)
T1 construct: extracellular domain; also called Mouse TREM2-Fc; not shown: Fc
T1 sequence (looked up): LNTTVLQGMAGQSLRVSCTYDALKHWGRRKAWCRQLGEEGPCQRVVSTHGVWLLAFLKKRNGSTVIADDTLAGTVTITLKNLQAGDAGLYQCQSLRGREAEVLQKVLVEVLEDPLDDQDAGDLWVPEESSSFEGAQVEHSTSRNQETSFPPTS
Description: (§1) A Surface Plasmon Resonance (Biacore) assay was used to assess the binding of humanized CGX101 (hCGX101), an IgG4 antibody, to the extracellular domain of human TREM2 and to a protein containing the extracellular domain of mouse TREM2 fused to Fc.

[2] = target: T2, extracellular domain (ECD) of human TREM2 (human, UniProt Q9NZC2 19-174); assay: SPR (Biacore)
T2 construct: also called Human TREM2-ECD; human TREM2-extracellular domain (ECD)
T2 sequence: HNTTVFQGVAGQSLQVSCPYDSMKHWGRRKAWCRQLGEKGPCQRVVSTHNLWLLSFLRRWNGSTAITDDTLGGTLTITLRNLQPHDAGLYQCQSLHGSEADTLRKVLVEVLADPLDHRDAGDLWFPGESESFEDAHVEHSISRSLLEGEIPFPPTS
Description: as §1

B1: humanized CGX101 (hCGX101), an IgG4 antibody (antibody, V domains shown)
VH: EVQLVQSGAEVKKPGESLKISCKGSGYTFTDYNIHWVRQMPGKGLEWMGYIYPKNGGTGYTQKFKSQVTISVDNSISTAYLQWSSLKASDTAMYYCARRTARASWFAFWGQGTLVTVSS
VL: DIVMTQSPATLSVSPGERATLSCKSSQSLLYSSNQKNYLAWYQQKPGQAPRVLIYWASTRESGIPARFSGSGSGTEFTLTISSLQSEDFAVYYCQQYYNYPFTFGQGTKLEIK
notes: also called hIgG4; huIgG4
[1]
  Kd: 18.6 nM
  koff: 0.00106 s⁻¹
  kon: 57000 M⁻¹ s⁻¹
[2]
  Kd: 5.74 nM and 5.73 nM
  koff: 0.000715 s⁻¹
  kon: 125000 M⁻¹ s⁻¹
